# T1: mouse FcγRII (mouse, UniProt P08101 30-210)
# T1 construct: also called mFcγRII; mFcgRII
# T1 sequence: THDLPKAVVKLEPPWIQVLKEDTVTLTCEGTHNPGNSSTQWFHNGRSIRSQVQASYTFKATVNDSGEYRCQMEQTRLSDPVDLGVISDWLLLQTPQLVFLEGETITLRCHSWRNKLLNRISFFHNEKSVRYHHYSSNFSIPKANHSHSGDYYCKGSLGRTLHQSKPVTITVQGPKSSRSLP
# T2: mouse FcγRIII (mouse, UniProt P08508 31-215)
# T2 construct: also called mFcγRIII; mFcgRIII
# T2 chain: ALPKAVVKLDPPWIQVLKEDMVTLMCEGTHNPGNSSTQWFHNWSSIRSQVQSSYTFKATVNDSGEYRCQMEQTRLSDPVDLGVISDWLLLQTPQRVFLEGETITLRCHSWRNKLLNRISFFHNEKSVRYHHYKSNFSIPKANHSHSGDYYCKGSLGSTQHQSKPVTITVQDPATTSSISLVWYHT
# Columns and labels:
# mouse FcγRII = molecular target: T1, mouse FcγRII; experiment: SPR (Biacore), antibody captured on Protein L, mFcγR as analyte
# Protocol: (§1) Each altered antibody was analyzed for its interaction with each Fcγ receptor prepared above using Biacore T100 (GE Healthcare Japan Corp.), Biacore T200 (GE Healthcare Japan Corp.), Biacore A100, or Biacore 4000. The running buffer used was HBS-EP+ (GE Healthcare Japan Corp.). The assay temperature was set to 25° C. The sensor chips used were chips prepared by immobilizing Protein L (ACTIGEN or BioVision) onto Series S Sensor Chip CM5 (GE Healthcare Japan Corp.) or Series S Sensor Chip CM4 (GE Healthcare Japan Corp.) by the amine coupling method.
# (§2) In order to calculate the KD value of each altered antibody for FcγR, kinetic analysis was conducted according to the following method: first, the antibody of interest was captured onto any of these chips and allowed to interact with mFcγR diluted with a running buffer. For the obtained sensorgram, the assay results were globally fit into the 1:1 Langmuir binding model using Biacore Evaluation Software to calculate an association rate constant ka (L/mol/s) and a dissociation rate constant kd (1/s). From these values, the dissociation constant KD (mol/L) was calculated.
# mouse FcγRIII = molecular target: T2, mouse FcγRIII; experiment: as above
# Protocol: as §1, §2
Binder,Kd (mouse FcγRII) [nM],relative mFcγRII-binding activity (mIgG1 = 1) (mouse FcγRII) [fold],Kd (mouse FcγRIII) [nM],relative mFcγRIII-binding activity (mIgG1 = 1) (mouse FcγRIII) [fold]
"H237-MB618/MRAL-k0 (antibody, mouse IgG1, mouse IgG1 CH variant; copies: 2 + 2) heavy: QVQLQESGPGLVKPSETLSLTCAVSGHSISHDHAWSWVRQPPGEGLEWIGFISYSGITNYNPSLQGRVTISRDNSKNTLYLQMNSLRAEDTAVYYCARSLARTTAMDYWGEGTLVTVSSAKTTPPSVYPLAPGSAAQTNSMVTLGCLVKGYFPEPVTVTWNSGSLSSGVHTFPAVLQSDLYTLSSSVTVPSSTWPSETVTCNVAHPASSTKVDKKIVPRDCGCKPCICTVPEEDDVFIFPPKPKDVLTITLTPKVTCVVVDISKDDPEVQFSWFVDDVEVHTAQTQPREEQFNSTFRSVSELPIMHQDWLNGKEFKCRVNSAAFPAPIEKTISKTKGRPKAPQVYTIPPPKEQMAKDKVSLTCMITDFFPEDITVEWQWNGQPAENYKNTQPIMDTDGSYFVYSKLNVQKSNWEAGNTFTCSVLHEGLHNHHTEKSLSHSPGK light: not shown",156,1.63,2730,0.13
"H237-MB641/MRAL-k0 (antibody, mouse IgG1, kappa, mouse IgG1 CH variant; copies: 2 + 2) heavy: QVQLQESGPGLVKPSETLSLTCAVSGHSISHDHAWSWVRQPPGEGLEWIGFISYSGITNYNPSLQGRVTISRDNSKNTLYLQMNSLRAEDTAVYYCARSLARTTAMDYWGEGTLVTVSSAKTTPPSVYPLAPGSAAQTNSMVTLGCLVKGYFPEPVTVTWNSGSLSSGVHTFPAVLQSDLYTLSSSVTVPSSTWPSETVTCNVAHPASSTKVDKKIVPRDCGCKPCICEAYEVEYVFIFPPKPKDVLTITLTPKVTCVVVDISKDDPEVQFSWFVDDVEVHTAQTQPREEQFNSTFRSVSELPIMHQDWLNGKEFKCRVNSAAFPAPIEKTISKTKGRPKAPQVYTIPPPKEQMAKDKVSLTCMITDFFPEDITVEWQWNGQPAENYKNTQPIMDTDGSYFVYSKLNVQKSNWEAGNTFTCSVLHEGLHNHHTEKSLSHSPGK light: not shown",143,1.62,2100,0.15
"H237-MB637/MRAL-k0 (antibody, mouse IgG1, kappa, mouse IgG1 CH variant; copies: 2 + 2) heavy: QVQLQESGPGLVKPSETLSLTCAVSGHSISHDHAWSWVRQPPGEGLEWIGFISYSGITNYNPSLQGRVTISRDNSKNTLYLQMNSLRAEDTAVYYCARSLARTTAMDYWGEGTLVTVSSAKTTPPSVYPLAPGSAAQTNSMVTLGCLVKGYFPEPVTVTWNSGSLSSGVHTFPAVLQSDLYTLSSSVTVPSSTWPSETVTCNVAHPASSTKVDKKIVPRDCGCKPCICEPAEVENVFIFPPKPKDVLTITLTPKVTCVVVDISKDDPEVQFSWFVDDVEVHTAQTQPREEQFNSTFRSVSELPIMHQDWLNGKEFKCRVNSAAFPAPIEKTISKTKGRPKAPQVYTIPPPKEQMAKDKVSLTCMITDFFPEDITVEWQWNGQPAENYKNTQPIMDTDGSYFVYSKLNVQKSNWEAGNTFTCSVLHEGLHNHHTEKSLSHSPGK light: not shown",80.7,2.87,1890,0.17
"H237-MB638/MRAL-k0 (antibody, mouse IgG1, kappa, mouse IgG1 CH variant; copies: 2 + 2) heavy: QVQLQESGPGLVKPSETLSLTCAVSGHSISHDHAWSWVRQPPGEGLEWIGFISYSGITNYNPSLQGRVTISRDNSKNTLYLQMNSLRAEDTAVYYCARSLARTTAMDYWGEGTLVTVSSAKTTPPSVYPLAPGSAAQTNSMVTLGCLVKGYFPEPVTVTWNSGSLSSGVHTFPAVLQSDLYTLSSSVTVPSSTWPSETVTCNVAHPASSTKVDKKIVPRDCGCKPCICIPAEVENVFIFPPKPKDVLTITLTPKVTCVVVDISKDDPEVQFSWFVDDVEVHTAQTQPREEQFNSTFRSVSELPIMHQDWLNGKEFKCRVNSAAFPAPIEKTISKTKGRPKAPQVYTIPPPKEQMAKDKVSLTCMITDFFPEDITVEWQWNGQPAENYKNTQPIMDTDGSYFVYSKLNVQKSNWEAGNTFTCSVLHEGLHNHHTEKSLSHSPGK light: not shown",280,0.83,3380,0.1
"H237-MB626/MRAL-k0 (antibody, mouse IgG1, kappa, mouse IgG1 CH variant; copies: 2 + 2) heavy: QVQLQESGPGLVKPSETLSLTCAVSGHSISHDHAWSWVRQPPGEGLEWIGFISYSGITNYNPSLQGRVTISRDNSKNTLYLQMNSLRAEDTAVYYCARSLARTTAMDYWGEGTLVTVSSAKTTPPSVYPLAPGSAAQTNSMVTLGCLVKGYFPEPVTVTWNSGSLSSGVHTFPAVLQSDLYTLSSSVTVPSSTWPSETVTCNVAHPASSTKVDKKIVPRDCGCKPCICETYEVELVFIFPPKPKDVLTITLTPKVTCVVVDISKDDPEVQFSWFVDDVEVHTAQTQPREEQFNSTFRSVSELPIMHQDWLNGKEFKCRVNSAAFPAPIEKTISKTKGRPKAPQVYTIPPPKEQMAKDKVSLTCMITDFFPEDITVEWQWNGQPAENYKNTQPIMDTDGSYFVYSKLNVQKSNWEAGNTFTCSVLHEGLHNHHTEKSLSHSPGK light: not shown",261,0.89,2370,0.14
"H237-MB633/MRAL-k0 (antibody, mouse IgG1, kappa, mouse IgG1 CH variant; copies: 2 + 2) heavy: QVQLQESGPGLVKPSETLSLTCAVSGHSISHDHAWSWVRQPPGEGLEWIGFISYSGITNYNPSLQGRVTISRDNSKNTLYLQMNSLRAEDTAVYYCARSLARTTAMDYWGEGTLVTVSSAKTTPPSVYPLAPGSAAQTNSMVTLGCLVKGYFPEPVTVTWNSGSLSSGVHTFPAVLQSDLYTLSSSVTVPSSTWPSETVTCNVAHPASSTKVDKKIVPRDCGCKPCICEDYEVENVFIFPPKPKDVLTITLTPKVTCVVVDISKDDPEVQFSWFVDDVEVHTAQTQPREEQFNSTFRSVSELPIMHQDWLNGKEFKCRVNSAAFPAPIEKTISKTKGRPKAPQVYTIPPPKEQMAKDKVSLTCMITDFFPEDITVEWQWNGQPAENYKNTQPIMDTDGSYFVYSKLNVQKSNWEAGNTFTCSVLHEGLHNHHTEKSLSHSPGK light: not shown",75.8,3.05,1640,0.2
"H237-MB643/MRAL-k0 (antibody, mouse IgG1, kappa, mouse IgG1 CH variant; copies: 2 + 2) heavy: QVQLQESGPGLVKPSETLSLTCAVSGHSISHDHAWSWVRQPPGEGLEWIGFISYSGITNYNPSLQGRVTISRDNSKNTLYLQMNSLRAEDTAVYYCARSLARTTAMDYWGEGTLVTVSSAKTTPPSVYPLAPGSAAQTNSMVTLGCLVKGYFPEPVTVTWNSGSLSSGVHTFPAVLQSDLYTLSSSVTVPSSTWPSETVTCNVAHPASSTKVDKKIVPRDCGCKPCICENYEVEYVFIFPPKPKDVLTITLTPKVTCVVVDISKDDPEVQFSWFVDDVEVHTAQTQPREEQFNSTFRSVSELPIMHQDWLNGKEFKCRVNSAAFPAPIEKTISKTKGRPKAPQVYTIPPPKEQMAKDKVSLTCMITDFFPEDITVEWQWNGQPAENYKNTQPIMDTDGSYFVYSKLNVQKSNWEAGNTFTCSVLHEGLHNHHTEKSLSHSPGK light: not shown",126,1.83,2000,0.16
"H237-MB647/MRAL-k0 (antibody, mouse IgG1, kappa, mouse IgG1 CH variant; copies: 2 + 2) heavy: QVQLQESGPGLVKPSETLSLTCAVSGHSISHDHAWSWVRQPPGEGLEWIGFISYSGITNYNPSLQGRVTISRDNSKNTLYLQMNSLRAEDTAVYYCARSLARTTAMDYWGEGTLVTVSSAKTTPPSVYPLAPGSAAQTNSMVTLGCLVKGYFPEPVTVTWNSGSLSSGVHTFPAVLQSDLYTLSSSVTVPSSTWPSETVTCNVAHPASSTKVDKKIVPRDCGCKPCICIPAEVEYVFIFPPKPKDVLTITLTPKVTCVVVDISKDDPEVQFSWFVDDVEVHTAQTQPREEQFNSTFRSVSELPIMHQDWLNGKEFKCRVNSAAFPAPIEKTISKTKGRPKAPQVYTIPPPKEQMAKDKVSLTCMITDFFPEDITVEWQWNGQPAENYKNTQPIMDTDGSYFVYSKLNVQKSNWEAGNTFTCSVLHEGLHNHHTEKSLSHSPGK light: not shown",200,1.16,2800,0.12
"H237-MB624/MRAL-k0 (antibody, mouse IgG1, kappa, mouse IgG1 CH variant; copies: 2 + 2) heavy: QVQLQESGPGLVKPSETLSLTCAVSGHSISHDHAWSWVRQPPGEGLEWIGFISYSGITNYNPSLQGRVTISRDNSKNTLYLQMNSLRAEDTAVYYCARSLARTTAMDYWGEGTLVTVSSAKTTPPSVYPLAPGSAAQTNSMVTLGCLVKGYFPEPVTVTWNSGSLSSGVHTFPAVLQSDLYTLSSSVTVPSSTWPSETVTCNVAHPASSTKVDKKIVPRDCGCKPCICEDYEVELVFIFPPKPKDVLTITLTPKVTCVVVDISKDDPEVQFSWFVDDVEVHTAQTQPREEQFNSTFRSVSELPIMHQDWLNGKEFKCRVNSAAFPAPIEKTISKTKGRPKAPQVYTIPPPKEQMAKDKVSLTCMITDFFPEDITVEWQWNGQPAENYKNTQPIMDTDGSYFVYSKLNVQKSNWEAGNTFTCSVLHEGLHNHHTEKSLSHSPGK light: not shown",263,0.88,2870,0.11

# Source: US20150203577A1 (Chugai, published 2015)
